Source: article PMC7529705 (Biochemistry, 2020)

Biological target: WD-40 repeat-containing protein 5 (WDR5), full-length (human, UniProt P61964 1-334)
Assay: ITC

Kd: 10.6 ± 0.8 µM
Binder: ARTKQTARKSTG [Histone H3 1–12aa unmodified peptide]
